Consider one molecule from US20250295796A1, “CELL PENETRATING POLYPEPTIDES (CPPS) AND THEIR USE IN HUMAN THERAPY” (RDP PHARMA AG, priority 2021, published 2025).

The IC50 is the midpoint of a concentration-inhibition curve. The low end stands for higher potency, the high end for lower potency.

Test [1] deals with 80 different human tumor cell lines. Nature of the test: Monolayer SRB staining assay for 72 hours, 80 human tumor cell lines. It is filed as cell-based. The following applies: 55/80 cell lines, SRB 72 hours. How it is done: Cells were harvested from exponential phase cultures, and depending on the cell line 10.000 to 30.000 cells were plated in 96-well flat-bottom microtiter plates. After a 24 h recovery period to allow cells to resume exponential growth, supernatant was discarded and 100 μl of culture medium (eight control wells/plate) or culture medium with the test compound were added by a liquid handling robotic system (Microlab® Starlet, Hamilton) and treatment continued for 72 hrs. Compounds were applied at 9 concentrations eight wells/concentration). At least three independent experiments were performed. For SRB staining, cells were fixed with SRB01 for 1h at 4° C. (final concentration of TCA=10%) washed with a plate washer (Hydroflex, Tecan©) for five times with H2O; and stained with 100 μl of SRB02 at room temperature for 10 min following 4 washes in SRB03 and finally 100 μl of developer solution SRB04 for 5 minutes with shaking. Optical density was assessed using a plate-reader (Sunrise, Tecan©) at 540 nm. […]
To analyze the cytostatic activity in different tumor cell lines, the in vitro activity of CROMOC36 was analyzed in 80 different human tumor cell lines representing the mayor tumor indications by the Monolayer Sulphorhodamine B (SRB) staining assay for 72 hours.
For orientation: The SRB assay estimates cell density from bound dye.

In test [2] the test system is Human hepatocellular carcinoma cell lines. Nature of the test: Monolayer assay, human hepatocellular carcinoma cell lines, 96h treatment (geomean of three lines). It is filed as cell-based. The method, then: (§1) Monolayer Assay Propidium Iodid (PI). Cells were harvested from exponential phase cultures, counted and depending on the cell line 3.000 to 20.000 cells were plated in 96-well flat-bottom microtiter plates After a 24 h recovery period to allow cells to resume exponential growth, 10 μl of culture medium (four control wells/plate) or culture medium with the test compound were added by a liquid handling robotic system and treatment continued for four days. Compounds were applied in half-log increments at 10 concentrations in duplicate. Three independent experiments were performed. Cells were then washed with 200 μl PBS to remove dead cells followed by addition of 200 μl of a solution containing 7 μg/ml propidium iodide (PI) and 0.1% (v/v) Triton X-100. After an incubation period of 1-2 h at room temperature, fluorescence (FU) was measured using the Cytofluor 4000 microplate reader (excitation λ=530 nm, emission λ=620 nm) to quantify the amount of attached viable cells. Concentrations required for 50% inhibition of cell growth (IC50) were calculated by non-linear regression (log[conc. of inhibitor]versus response (% T/C)) using the analysis software GraphPad Prism®, Prism 5 for windows, version 5.01 (GraphPad Software Inc., CA).
CROMOC36—in vitro activity Human hepatocellular carcinoma cell lines IC50 values of CROMOC36 and Sorafenib, 96h treatment. […] The individual results for CROMOC36 are included in FIG. 24. […] The individual results for Sorafenib are included in (FIG. 24).

Another test relates to LIXF 575L. Nature of the test: Monolayer assay, 96h treatment, LIXF 575L. The test is classed as cell-based, human. How it is done: as §1
(§2) CROMOC36—in vitro activity Human hepatocellular carcinoma cell lines IC50 values of CROMOC36 and Sorafenib, 96h treatment. […]

For a further test, the system named is MIAPACA2. Nature of the test: Propidium iodide monolayer assay, MIAPACA2. The test is classed as cell-based, human. The conditions noted are these: MIAPACA2, four days. The method, then:
as §1, with “Concentrations required for 50% inhibition of cell growth (IC50) were calculated by non-linear regression (log[conc. of inhibitor]versus response (% T/C)) using the analysis software GraphPad Prism®, Prism 5 for windows, version 5.01 (GraphPad Software Inc., CA).” left out
CROMOC36—in vitro activity Human pancreatic carcinoma cell lines. […] Antitumor activity was assessed after four days of CROMOC36 treatment using a propidium iodide based monolayer proliferation assay. […]

The subject of a further test is HEPG2. Nature of the test: Monolayer assay, 96h treatment, HEPG2. The test is classed as cell-based, human. The conditions noted are these: HEPG2, 96h treatment. How it is done:
as §1, §2

The test system of test [3] is IMR32 human neuroblastoma xenograft. Nature of the test: IMR32 human neuroblastoma xenograft model. The test is classed as in vivo, mice. The following applies: q14dx2. An excerpt:
FIG. 11: IMR32 s.c. implanted. Treatment on xenograft mice with advanced tumors (volume >50 mm^3). Variation in tumor volume expressed as percentage with respect to initial volume (day 0; designated as 100%). Final measurements for vehicle (PBS) and Doxorubicin groups were taken on day 42. For the remaining groups, final measurements were taken on day 63, the termination day of the experiment. Growth reduction compared to controls on day 42 (p<0.01).
The aim of this study was to assess the in vivo efficacy of CROMOC36 on a IMR32 human neuroblastoma xenograft model. CROMOC36 was administered subcutaneously (s.c.) at intervals of two weeks (q14dx2) at two different doses (32 mg/Kg) and also in combination with doxorubicin administered intravenously (i.v.) (32/kg CROMOC36+4+4 mg/Kg doxorubicin, s.c and i.v., q14dx2). Doxorubicin was also used alone as a reference compound (8 mg/kg, i.v., q14dx2). Vehicle was PBS.

Test [4] deals with HCT116 human colon carcinoma xenograft with null p53 (HCT116 p53−/−). Nature of the test: HCT116 p53-/- xenograft, single agent and combination with cisplatin or vincristine. It is filed as in vivo, female athymic nude mice. How it is done:
A study was conducted to evaluate the efficacy and tolerability of CROMOC36 against an HCT116 human colon carcinoma xenograft model with null p53 (HCT116 p53−/−) in female athymic nude mice. CROMOC36 was administered subcutaneously (s.c.) three times at intervals of two weeks (q14dx3) as a single agent or in combination with cisplatin (CDDP) at 4 mg/kg or vincristine (VCR) at 2 mg/kg which were both administered five times at intervals of one week (q7dx5). CROMOC36 was tested at 32 mg/kg or using a decreasing dosage of 32-16-16 mg/kg. CDDP and VCR were also administered as single agents to allow comparison of the efficacy of CROMOC36 with commonly used anticancer drugs. The dose and schedule of CDDP and VCR treatments remained the same when tested as single agents or in combination with CROMOC36. […] Efficacy was also evaluated by measuring the tumor growth delay (TGD) and the number of regression responses.

For a further test, the system named is HEP3B. Nature of the test: Monolayer assay, 96h treatment, HEP3B. The test is classed as cell-based, human. How it is done:
as §1, §2

B1: CROMOC36: single chain PvuII endonuclease fused at its C-terminus to DDM36, PEGylated final product used in the Examples (protein)
chain: MSHPDLNKLLELWPHIQEYQDLALKHGINDIFQDNGGKLLQVLLITGLTVLPGREGNDAVDNAGQEYELKSINIDLTKGFSTHHHMNPVIIAKYRQVPWIFAIYRGIAIEAIYRLEPKDLEFYYDKWERKWYSDGHKDINNPKIPVKYVMEHGTKIYGSGGSGGSSHPDLNKLLELWPHIQEYQDLALKHGINDIFQDNGGKLLQVLLITGLTVLPGREGNDAVDNAGQEYELKSINIDLTKGFSTHHHMNPVIIAKYRQVPWIFAIYRGIAIEAIYRLEPKDLEFYYDKWERKWYSDGHKDINNPKIPVKYVMEHGTKIYGNSGSGKKKKKGKGSGLGSGKKKDPLGSGLGSGKKKKKGKGSGLGSGKKKDPLGST
modifications: PEGylated; peptide, CROMOC36
For the molecule B1, the concentration for half-maximal inhibition (IC50) is at most 100 nM in test [1]; 14.1 nM in test [2] (three HCC cell lines, 96h treatment); 17 nM with LIXF 575L; around 10 nM with MIAPACA2; 13.7 nM in the test on HEPG2; 12.2 nM with HEP3B. Besides, the “potency compared to Sorafenib” value in test [2] (geomean IC50 of three HCC cell lines) is recorded as “over 300 fold”. The “tumor growth inhibition compared to controls” value in test [3] (CROMOC36 32/kg s.c. + doxorubicin 4+4 mg/Kg i.v.) is 89%. Also, the “tumor growth inhibition (TGI) compared to controls” value in test [3] (single agent, CROMOC36 32 mg/Kg s.c., doxorubicin 8 mg/kg i.v.) is listed as 82%. Moreover, the tumor growth inhibition stood at 82.9% in test [4] (CROMOC36 32 mg/kg s.c. q14dx3, single agent) and 91.6% in test [4] (CROMOC36 decreasing 32-16-16 mg/kg s.c. q14dx3, single agent). In test [4] (CROMOC36 32-16-16 mg/kg), the partial regression response entry is given as “one”. For the same molecule, in test [4] (CROMOC36 32-16-16 mg/kg), the tumor-free survivor result is given as “one”. In addition, in test [4] (CROMOC36 32-16-16 mg/kg in combination with CDDP or VCR), the “tumor growth inhibition with respect to single-agent CROMOC36” value was “did not change significantly”. Moreover, the “persistence of inhibitory effect” value in test [4] (CROMOC36 32-16-16 mg/kg, single agent or in combination with CDDP or VCR, three weeks after the last treatment) is “persisted until day 50”. Further, the “% TGD (tumor growth delay)” value in test [4] (endpoint tumor volume of 1000 mm^3, CROMOC36 as single agent or in combination) is above 117%. The “time to study endpoint (TTE)” value in test [4] (endpoint tumor volume of 1000 mm^3, control Day 23, CROMOC36 as single agent or in combination) is above 50 days.
